# T1: gD tagged human FcRH3 on SVT2 cells (human, UniProt Q96P31 18-734)
# T1 construct: whole, on cells; also called huFcRH3; not shown: gD tag; the construct for this FcRH is not described
# T1 sequence (looked up): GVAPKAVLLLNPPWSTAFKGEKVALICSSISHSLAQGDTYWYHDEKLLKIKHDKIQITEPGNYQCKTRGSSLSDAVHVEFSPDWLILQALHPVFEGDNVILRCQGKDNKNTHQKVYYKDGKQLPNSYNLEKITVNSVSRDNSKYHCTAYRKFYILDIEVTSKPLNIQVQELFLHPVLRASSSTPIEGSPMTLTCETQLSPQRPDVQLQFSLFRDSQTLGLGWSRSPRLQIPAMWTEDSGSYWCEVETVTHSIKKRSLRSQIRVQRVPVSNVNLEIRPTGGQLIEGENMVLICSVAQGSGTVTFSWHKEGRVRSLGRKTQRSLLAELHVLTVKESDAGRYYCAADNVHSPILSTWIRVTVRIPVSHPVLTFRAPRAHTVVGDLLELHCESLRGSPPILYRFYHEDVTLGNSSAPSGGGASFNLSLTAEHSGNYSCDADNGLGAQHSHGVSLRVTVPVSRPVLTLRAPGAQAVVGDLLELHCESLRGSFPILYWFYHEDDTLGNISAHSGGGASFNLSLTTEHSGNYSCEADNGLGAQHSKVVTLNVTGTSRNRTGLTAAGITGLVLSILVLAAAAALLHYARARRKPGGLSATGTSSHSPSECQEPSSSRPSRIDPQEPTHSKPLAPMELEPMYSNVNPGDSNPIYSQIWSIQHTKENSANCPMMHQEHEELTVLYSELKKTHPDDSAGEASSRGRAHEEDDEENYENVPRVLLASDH
# T2: gD tagged human FcRH2 on SVT2 cells (human, UniProt Q96LA5 20-508)
# T2 construct: whole, on cells; also called huFcRH2; not shown: gD tag; the construct for this FcRH is not described
# T2 sequence (looked up): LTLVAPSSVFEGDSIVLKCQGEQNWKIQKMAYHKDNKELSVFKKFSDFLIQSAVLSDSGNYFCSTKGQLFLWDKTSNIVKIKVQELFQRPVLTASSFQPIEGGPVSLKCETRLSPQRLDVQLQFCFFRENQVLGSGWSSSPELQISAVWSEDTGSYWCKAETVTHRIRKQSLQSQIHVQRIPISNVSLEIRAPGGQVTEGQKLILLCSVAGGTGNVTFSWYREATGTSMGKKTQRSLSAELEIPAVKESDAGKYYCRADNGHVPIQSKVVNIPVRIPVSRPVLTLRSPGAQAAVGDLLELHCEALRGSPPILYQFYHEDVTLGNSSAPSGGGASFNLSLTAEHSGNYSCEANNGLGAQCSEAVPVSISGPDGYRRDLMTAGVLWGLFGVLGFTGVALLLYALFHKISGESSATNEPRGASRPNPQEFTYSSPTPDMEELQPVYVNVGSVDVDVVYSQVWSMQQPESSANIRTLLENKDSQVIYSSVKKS
# T3: human FcRH5 (FcRH5c/IRTA2c, PRO52387), soluble recombinant protein (human, UniProt Q96RD9 16-851)
# T3 construct: also called Hu antigen; FcRH5 protein
# T3 chain: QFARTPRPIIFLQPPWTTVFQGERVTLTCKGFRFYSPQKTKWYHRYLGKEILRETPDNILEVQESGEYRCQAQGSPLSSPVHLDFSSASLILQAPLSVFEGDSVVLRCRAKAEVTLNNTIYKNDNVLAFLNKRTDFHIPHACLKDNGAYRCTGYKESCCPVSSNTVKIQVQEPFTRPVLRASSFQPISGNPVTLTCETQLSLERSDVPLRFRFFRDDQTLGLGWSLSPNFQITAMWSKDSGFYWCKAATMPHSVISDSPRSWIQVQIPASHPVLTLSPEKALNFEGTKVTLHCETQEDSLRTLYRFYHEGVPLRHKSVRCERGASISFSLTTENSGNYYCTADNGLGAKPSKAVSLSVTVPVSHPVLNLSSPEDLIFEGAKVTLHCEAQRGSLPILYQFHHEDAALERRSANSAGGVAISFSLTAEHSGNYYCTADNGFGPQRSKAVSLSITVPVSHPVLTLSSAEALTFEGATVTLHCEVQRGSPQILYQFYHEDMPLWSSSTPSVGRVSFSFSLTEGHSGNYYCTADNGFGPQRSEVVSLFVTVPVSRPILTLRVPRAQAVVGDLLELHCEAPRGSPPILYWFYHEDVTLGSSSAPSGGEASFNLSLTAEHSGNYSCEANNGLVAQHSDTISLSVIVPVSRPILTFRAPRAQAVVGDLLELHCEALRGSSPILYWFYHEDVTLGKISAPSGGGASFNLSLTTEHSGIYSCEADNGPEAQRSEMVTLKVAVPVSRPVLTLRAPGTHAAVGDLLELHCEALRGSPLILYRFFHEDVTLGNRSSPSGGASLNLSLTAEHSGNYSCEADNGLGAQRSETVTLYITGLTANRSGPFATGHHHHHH
# T4: gD tagged human FcRH4 on SVT2 cells (human, UniProt Q96PJ5 20-515)
# T4 construct: whole, on cells; also called huFcRH4; IRTA1; not shown: gD tag; the construct for this FcRH is not described
# T4 sequence (looked up): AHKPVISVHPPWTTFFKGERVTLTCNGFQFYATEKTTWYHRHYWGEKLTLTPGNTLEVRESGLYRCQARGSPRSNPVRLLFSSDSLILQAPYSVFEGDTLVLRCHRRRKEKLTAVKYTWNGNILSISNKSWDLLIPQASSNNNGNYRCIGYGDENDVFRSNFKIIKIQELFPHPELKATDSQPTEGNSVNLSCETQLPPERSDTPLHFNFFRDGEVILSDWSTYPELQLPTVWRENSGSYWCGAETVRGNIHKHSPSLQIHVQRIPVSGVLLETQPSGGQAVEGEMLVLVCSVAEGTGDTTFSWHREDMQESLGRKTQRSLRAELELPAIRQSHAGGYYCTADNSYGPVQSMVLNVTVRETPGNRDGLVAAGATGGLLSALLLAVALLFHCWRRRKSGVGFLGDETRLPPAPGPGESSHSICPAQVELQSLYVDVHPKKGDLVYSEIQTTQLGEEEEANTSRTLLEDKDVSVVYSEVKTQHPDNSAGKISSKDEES
# Experiments:
# [1] = target: T1, gD tagged human FcRH3 on SVT2 cells; test: FACS, SVT2.MSCV.gD.FcRH3 cells, PE secondary antibody
# [2] = target: T2, gD tagged human FcRH2 on SVT2 cells; test: FACS, SVT2.MSCV.gD.FcRH2 cells, PE secondary antibody
# [3] = target: T3, human FcRH5 (FcRH5c/IRTA2c, PRO52387), …; test: SPR (Biacore 2000): IgG captured on anti-murine IgG chip, FcRH injected, 25 C, 1:1 Langmuir model
# [4] = target: T4, gD tagged human FcRH4 on SVT2 cells; test: FACS, SVT2.MSCV.gD.FcRH4 cells, PE secondary antibody
binder,measurement,setting,value
"murine monoclonal antibody anti-FcRH5-13G9 (antibody, V domains shown, Whole murine IgG from hybridoma; also called 13G9.1.1; mu13G9) VH: EVQLVQSGPELKKPGETVKISCKASGYTFTNYGMNWVKQAPGKGLKWMGWVNTYTGEPTYTDDFKGRFAFSVETSASTVFLQINNLKNEDTATYFCARRSIPYYYAMDYWGQGTSLT VL: DIVMTQSQKIMSTSVGDRVNVTCKASQNVGSNVAWYHQKPGQSPKALIYSASYRYSGVPDRFTGSGSGTDFTLTISNVQSEDLAEYFCQQYKTWTFGGGTKLEIKR",binding result,[1],no binding (tested: 1.0 ug per about 10^6 cells (p-1120))
same,binding result,[2],no binding (tested: 1.0 ug per about 10^6 cells (p-1120))
same,Kd,[3],19 nM
same,binding result,[4],no binding (tested: 1.0 ug per about 10^6 cells (p-1120))
